Test results reported in patent publication US9637543B2, “HER3 antibodies and uses thereof” (THE UAB RESEARCH FOUNDATION, priority 2011, dated 2017).
Entries after “also recorded” stand apart in the source; their conditions may differ.

Legend:
HER3 [1] = target: T1, HER3 (Homo sapiens, UniProt P21860); experiment: HER3 autophosphorylation in pancreatic cancer cell lines; format: cell-based; parameters: endogenous in cells; host or cells: N87, BT474, ZR75-30, Panc 2.03, A549 and a panel of human cancer cell lines; details: single agents
HER2 [2] = target: T2, HER2 (Homo sapiens, UniProt P04626); experiment: NRG1-induced phosphorylation of HER2 in pancreatic cancer cell lines; format: cell-based; parameters: endogenous in cells
[3] = system: N87 human gastric cancer xenograft; experiment: N87 human gastric cancer xenograft model; format: in vivo; details: lapatinib alone versus antibodies alone
HER2 [4] = target: T2, HER2; experiment: HER2 autophosphorylation in pancreatic cancer cell lines; format: cell-based; parameters: endogenous in cells; details: single agents
HER2 [5] = target: T2, HER2; experiment: HER2 tyrosine phosphorylation ELISA, antibodies with or without lapatinib; format: cell-based; parameters: endogenous in cells; host or cells: N87 gastric cancer cells; ZR75-30 breast cancer cells; details: 24 hours; for tyrosine phosphorylation level of HER2: N87 cells; for tyrosine phosphorylation levels of HER2: ZR75-30 cells
HER3 [6] = target: T1, HER3; experiment: NRG1-induced phosphorylation of HER3 in pancreatic cancer cell lines; format: cell-based; parameters: endogenous in cells; host or cells: N87, BT474, ZR75-30, Panc 2.03, A549 and a panel of human cancer cell lines
[7] = system: A549 human lung cancer xenograft; experiment: A549 human lung cancer xenograft model; format: in vivo
[8] = target: T3, HER3-transfected SP 2/0 cells (Homo sapiens, UniProt P21860); experiment: Flow cytometry binding specificity on transfected SP 2/0 cells; details: EGFR, HER2 or HER3 transfected SP2/0 cells, 1 μg/ml purified antibody
T3 construct: expressed in transfected cells; host or cells: SP 2/0 cells
Protocol: (§1) The average OD values of triplicates are presented. The values for egFR are superimposed on the values for HER2. […] EGFR, HER2 or HER3-transfected SP 2/0 cells were stained with 1 μg/ml of purified antibody, followed by PE-goat anti-mouse IgG.
(§2) An ELISA plate was coated with 1 μg/ml of recombinant soluble EGFR, HER2, or the extracellular domain of HER3.

recombinant soluble HER3 [9] = target: T4, recombinant soluble HER3 (Homo sapiens, UniProt P21860); experiment: ELISA for blocking of NRG1 binding to HER3; details: 100 ng/ml biotin-conjugated NRG1, increasing antibody concentrations
T4 construct: coated with 1 μg/ml of recombinant soluble HER3
Source text: (§3) The binding of NRG1 to HER3 (vertical axis) was detected by HRP-streptavidin. […] NRG1 binding was detected by PE-streptavidin. The mean fluorescent intensities (MFI) of NRG1 bound are presented.
(§4) The binding of NRG1 to HER3 was detected by HRP-streptavidin. […] Thus, the 1A5 antibody is herein referred to as a ligand-independent antibody. […] Thus, the 3D4 antibody is herein referred to as a ligand-dependent antibody. […] NRG1 binding was detected by PE-streptavidin.

EGFR = EGFR (Homo sapiens, UniProt P00533); experiment: EGFR tyrosine phosphorylation ELISA, antibodies with or without tyrosine kinase inhibitor; details: 24 hours
recombinant soluble HER3 [10] = target: T4, recombinant soluble HER3; experiment: Sandwich ELISA for epitopes (1A5 capture, HRP-3D4 detection); format: binding; details: plate coated with 2 μg/ml 1A5, 200 ng/ml HRP-conjugated 3D4
Protocol: An ELISA plate was coated with 2 μg/ml of purified 1A5 and then incubated with indicated concentrations of recombinant soluble HER3 in the presence of 200 ng/ml HRP-conjugated 3D4. The binding of 3D4 to HER3 was detected by chemiluminescence substrate. The average counts per second of triplicates are presented.
An ELISA plate was coated with 2 μg/ml of purified 1A5 and then incubated with increasing concentrations of HER3 in the presence of 200 ng/ml HRP-conjugated 3D4. The binding of 3D4 antibody to HER3 was detected by chemiluminescence.

HER3 [11] = target: T1, HER3; experiment: Functional screen for inhibition of ligand-induced HER3 activation; format: cell-based; parameters: endogenous in cells; host or cells: N87, BT474, ZR75-30, Panc 2.03, A549 and a panel of human cancer cell lines; details: human cancer cell lines
Source text: Another HER3 antibody was generated by immunizing mice with human HER3 expressing SP 2/0 cells. […] Thus, the 3D4 antibody is a ligand-dependent antibody.

HER3 [12] = target: T1, HER3; experiment: HER3 tyrosine phosphorylation ELISA, antibodies with or without tyrosine kinase inhibitor; format: cell-based; parameters: endogenous in cells; host or cells: N87; tyrosine phosphorylation of HER3: dose or concentration left out as unconfirmed; details: 24 hours; for tyrosine phosphorylation levels of HER3: 20 μg/ml antibody
[13] = target: T3, HER3-transfected SP 2/0 cells; experiment: Flow cytometry for blocking of NRG1 binding to HER3; details: 100 ng/ml biotin-conjugated NRG1, increasing antibody concentrations
Source text: as §3, §4

[14] = target: T5, HER3 (extracellular domain) (Homo sapiens, UniProt P21860); experiment: ELISA binding specificity on recombinant soluble EGFR, HER2, HER3; details: plate coated with 1 μg/ml recombinant soluble EGFR, HER2 or HER3 extracellular domain
T5 construct: recombinant soluble EGFR, HER2, or the extracellular domain of HER3
Protocol: as §1, §2

T3 sequence (P21860 20-1342): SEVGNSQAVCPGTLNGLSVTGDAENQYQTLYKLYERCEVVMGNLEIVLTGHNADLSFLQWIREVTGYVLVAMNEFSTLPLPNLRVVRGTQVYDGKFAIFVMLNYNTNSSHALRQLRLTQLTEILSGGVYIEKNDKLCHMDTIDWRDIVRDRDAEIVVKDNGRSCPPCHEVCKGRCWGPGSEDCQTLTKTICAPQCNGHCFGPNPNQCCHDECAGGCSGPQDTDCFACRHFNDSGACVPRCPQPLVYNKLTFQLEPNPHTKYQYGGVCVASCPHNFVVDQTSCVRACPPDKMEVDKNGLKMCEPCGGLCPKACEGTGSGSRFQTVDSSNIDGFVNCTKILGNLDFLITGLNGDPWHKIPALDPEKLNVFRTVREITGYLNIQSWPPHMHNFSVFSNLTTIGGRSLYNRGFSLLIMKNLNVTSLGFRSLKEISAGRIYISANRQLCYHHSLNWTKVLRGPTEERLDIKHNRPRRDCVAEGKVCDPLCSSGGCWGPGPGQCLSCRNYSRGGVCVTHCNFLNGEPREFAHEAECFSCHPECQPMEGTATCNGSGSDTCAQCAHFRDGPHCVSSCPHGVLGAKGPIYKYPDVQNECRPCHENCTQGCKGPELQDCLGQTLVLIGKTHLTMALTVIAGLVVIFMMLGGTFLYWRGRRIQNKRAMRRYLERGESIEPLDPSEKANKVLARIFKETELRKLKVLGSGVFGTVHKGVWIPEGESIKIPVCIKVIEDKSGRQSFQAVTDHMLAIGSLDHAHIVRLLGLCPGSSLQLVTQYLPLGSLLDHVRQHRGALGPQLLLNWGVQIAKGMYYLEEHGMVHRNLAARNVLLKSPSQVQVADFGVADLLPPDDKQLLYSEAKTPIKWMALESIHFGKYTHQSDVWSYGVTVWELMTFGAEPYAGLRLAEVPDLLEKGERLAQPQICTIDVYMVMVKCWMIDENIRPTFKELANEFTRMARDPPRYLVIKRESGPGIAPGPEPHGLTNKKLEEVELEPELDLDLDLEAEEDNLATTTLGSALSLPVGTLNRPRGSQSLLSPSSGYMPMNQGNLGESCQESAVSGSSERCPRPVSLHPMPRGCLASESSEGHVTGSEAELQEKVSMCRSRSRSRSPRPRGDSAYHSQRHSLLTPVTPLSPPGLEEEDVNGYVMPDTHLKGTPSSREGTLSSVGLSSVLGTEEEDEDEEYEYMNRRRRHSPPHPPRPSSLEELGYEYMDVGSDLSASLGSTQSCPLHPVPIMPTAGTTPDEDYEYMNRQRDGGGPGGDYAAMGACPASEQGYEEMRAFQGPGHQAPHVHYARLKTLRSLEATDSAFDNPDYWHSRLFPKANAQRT
T1 sequence (P21860 20-1342): as above
T4 sequence (P21860 20-643 limits assumed): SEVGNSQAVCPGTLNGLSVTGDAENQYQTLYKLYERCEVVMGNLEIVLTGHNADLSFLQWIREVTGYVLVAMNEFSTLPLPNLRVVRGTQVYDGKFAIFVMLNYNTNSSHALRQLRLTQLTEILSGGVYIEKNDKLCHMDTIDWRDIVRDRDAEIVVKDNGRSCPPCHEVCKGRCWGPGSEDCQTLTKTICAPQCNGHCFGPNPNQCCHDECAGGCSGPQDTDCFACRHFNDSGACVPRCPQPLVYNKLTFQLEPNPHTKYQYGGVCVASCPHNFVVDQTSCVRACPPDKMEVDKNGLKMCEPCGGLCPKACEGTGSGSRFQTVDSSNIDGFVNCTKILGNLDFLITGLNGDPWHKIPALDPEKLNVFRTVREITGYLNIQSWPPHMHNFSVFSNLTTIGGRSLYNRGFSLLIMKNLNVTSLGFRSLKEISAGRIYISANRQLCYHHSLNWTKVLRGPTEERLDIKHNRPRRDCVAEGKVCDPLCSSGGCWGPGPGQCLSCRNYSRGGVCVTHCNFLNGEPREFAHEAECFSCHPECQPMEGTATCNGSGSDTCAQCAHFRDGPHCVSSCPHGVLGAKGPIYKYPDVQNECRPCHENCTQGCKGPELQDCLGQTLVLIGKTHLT
T5 sequence (P21860 20-643 limits assumed): as above

With `C#Cc1cccc(Nc2ncnc3cc(OCCOC)c(OCCOC)cc23)c1` [erlotinib, reference compound] the “autophosphorylation of HER3” value (HER3 [1]) was “but not erlotinib and lapatinib inhibited autophosphorylation of HER3”.

`CS(=O)(=O)CCNCc1ccc(-c2ccc3ncnc(Nc4ccc(OCc5cccc(F)c5)c(Cl)c4)c3c2)o1` [lapatinib, reference compound] was tested, and the “NRG1-induced phosphorylation of HER2” value (HER2 [2]) was “inhibited NRG1-induced phosphorylation of HER2; also recorded: inhibited NRG-1-induced phosphorylation of HER2”, the tumor volume [3] was “reduced tumor volume more than the administration of the combination of 1A5 and 3D4 antibodies” and the “autophosphorylation of HER2” value (HER2 [4]) was “partially inhibited autophosphorylation of HER2”. The “autophosphorylation of HER3” value (HER3 [1]) was “but not erlotinib and lapatinib inhibited autophosphorylation of HER3”, the “tyrosine phosphorylation level of HER2” value (HER2 [5]; 100 nM lapatinib with the antibodies) was “reduced” and the “tyrosine phosphorylation levels of HER2” value (HER2 [5]; 100 nM lapatinib with the antibodies alone or in combination) was “reduced tyrosine phosphorylation levels”. For the same molecule, the “NRG1-induced phosphorylation of HER3” value (HER3 [6]) was “only partially inhibited NRG1-induced phosphorylation of HER3; also recorded: partially reduced NRG-1-induced phosphorylation”.

B1: 3D4: ligand-dependent HER3 antibody; light chain variable region SEQ ID NO:9, heavy chain variable region SEQ ID NO:10 (antibody, V domains shown)
VH: MGWSRIFLFLLSIIAGVHCQVQLQQSGPELVKPGASVRISCKASGYTFTNYFLHWMKQRPGQGLEWIGWIYPGNVNTKYSEKFKGKATLTADKSSSTAYMQLSSLTSEDSAVYFCARSTYYSMDYWGQGTSVTVSS
VL: METDTLLLWVLLLWVPGSTGDIVLTQSPASLAVSLGQRATISCRASESVDSYGNSFMNWYQQKPGQPPKVLIYRASNLESGIPARFSGSGSRTDFTLTITPVEADDVATYYCQQSYEDPPTFGGGTKLEIK
In the case of B1, the tumor volume ([7]; antibodies without Erbitux) is reported as “reduced tumor volume”, the tumor volume ([7]; in combination with Erbitux) is reported as “reduced tumor volume more than administration of Erbitux alone” and the “binding specificity by flow cytometry” value [8] is reported as “specifically bind HER3”. The “blocking of NRG1 binding to HER3 (ELISA)” value (recombinant soluble HER3 [9]) was “inhibited binding of NRG1 to HER3; also recorded: blocks ligand binding to HER3”, the “NRG1-induced phosphorylation of HER2” value (HER2 [2]) was “inhibited NRG1-induced phosphorylation of HER2; also recorded: inhibited NRG-1-induced phosphorylation of HER2” and the “tyrosine phosphorylation levels of EGFR” value (EGFR; A549 cells, 20 μg/ml antibody, without Erlotinib) was “did not affect tyrosine phosphorylation levels of EGFR”. The “tyrosine phosphorylation level of EGFR” value (EGFR; N87 cells, 20 mg/ml antibody, without lapatinib) was “did not affect the level of tyrosine phosphorylation for EGFR or HER2”, the “epitopes of HER3 bound” value (recombinant soluble HER3 [10]) was “bind different epitopes of HER3; also recorded: recognize different epitopes on HER3” and the “inhibition of ligand-induced HER3 activation” value (HER3 [11]) was “ability to inhibit ligand-induced HER3 activation in human cancer cells lines”. For the same molecule, the “tyrosine phosphorylation levels of HER3, effect of adding Erlotinib” value (HER3 [12]; A549 cells, 20 μg/ml antibody with 100 nM Erlotinib) was “enhanced”, the “tyrosine phosphorylation levels of HER3” value (HER3 [12]; A549 cells, without Erlotinib) was “reduced the tyrosine-phosphorylation levels of HER3” and the “tyrosine phosphorylation of HER3” value (HER3 [12]; N87 cells, without lapatinib) was “reduced the tyrosine phosphorylation of HER3”. For the same molecule, the “tyrosine phosphorylation of HER3, effect of adding lapatinib” value (HER3 [12]; N87 cells, with 100 nM lapatinib) was “enhanced”, the “tyrosine phosphorylation levels of HER3, effect of adding lapatinib” value (HER3 [12]; ZR75-30 cells, 20 μg/ml antibody with 100 nM lapatinib) was “enhanced” and the “tyrosine phosphorylation levels of HER3” value (HER3 [12]; ZR75-30 cells, without lapatinib) was “reduced the tyrosine phosphorylation levels of HER3”. The “tyrosine phosphorylation level of HER2” value (HER2 [5]; without lapatinib) was “did not affect the level of tyrosine phosphorylation for EGFR or HER2”, the “tyrosine phosphorylation levels of HER2” value (HER2 [5]; 20 μg/ml antibody, without lapatinib) was “did not affect tyrosine phosphorylation levels of HER2” and the “blocking of NRG1 binding to HER3 (flow cytometry)” value [13] was “blocked NRG1 binding to HER3; also recorded: blocks ligand binding to HER2”. The “NRG1-induced phosphorylation of HER3” value (HER3 [6]) was “inhibited NRG1-induced phosphorylation of HER3; also recorded: inhibited NRG-1 induced phosphorylation of HER3” and the “binding specificity by ELISA” value [14] was “specifically bind HER3; also recorded: specific binding”.
